Assay results published in the supplement of paper PMC9876800.

System: peptide library, one residue held at a place counted from the S/T acceptor
Assay: relative phosphorylation of the sub-library (ratio to the mean residue at this position); higher = residue favoured
Procedure, shortened: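 Purified recombinant kinases, either human or orthologue constructs, were incubated in 384-well plates with biotinylated degenerate peptide sub-libraries. Each sub-library fixed one residue at one position around a central Ser/Thr. Peptides at 50 μM and 50 μM ATP spiked with γ-32P-ATP were used for 90 min under kinase-specific conditions, and spots on streptavidin membranes were phosphorimaged and quantified by densitometry. Relative sub-library phosphorylation is expressed as a ratio to the mean residue at that position.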

Chain of MAP3K7, construct: aa1-303, human (O43318 1-303, looked up): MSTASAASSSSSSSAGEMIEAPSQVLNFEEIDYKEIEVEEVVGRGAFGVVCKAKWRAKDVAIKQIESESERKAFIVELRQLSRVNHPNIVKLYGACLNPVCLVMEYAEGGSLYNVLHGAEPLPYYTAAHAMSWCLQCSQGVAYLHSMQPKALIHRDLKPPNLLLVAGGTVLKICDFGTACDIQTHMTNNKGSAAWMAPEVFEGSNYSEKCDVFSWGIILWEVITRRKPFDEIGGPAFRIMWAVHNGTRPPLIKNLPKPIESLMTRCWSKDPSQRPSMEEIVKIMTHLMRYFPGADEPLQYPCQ

MAP3K7, construct: aa1-303, human (from UniProt O43318)
relative phosphorylation
Conditions	at +1	at +2	at +3	at +4	at -1	at -2	at -3	at -4	at -5
A fixed	0.455	0.709	0.902	0.855	0.708	0.979	1.18	0.95	1.05
D fixed	0.391	1.03	0.996	0.885	1.18	0.533	0.857	1.69	1.56
E fixed	0.668	0.547	0.878	0.898	0.687	0.863	0.662	1.33	1.17
F fixed	1.44	0.608	0.93	0.735	1.01	1.14	0.818	0.938	0.891
G fixed	0.565	0.809	1.39	1.18	0.528	0.592	0.714	1.14	1.04
H fixed	0.914	1.42	1.1	1.11	1.23	1.42	1.1	1.05	1.07
I fixed	1.41	0.623	0.714	0.921	0.888	1.2	1.14	0.872	0.781
K fixed	0.409	2.3	1.33	1.42	0.752	0.581	0.752	0.734	0.885
L fixed	2	0.608	0.821	0.949	1.57	1.01	1.13	0.834	0.77
M fixed	1.55	0.786	0.968	0.897	1.41	1.31	0.999	0.9	0.884
N fixed	2.36	1.44	1.07	0.959	1.13	0.633	0.649	0.962	0.987
P fixed	0.206	0.741	0.892	1.29	0.348	0.537	0.854	0.807	1.06
Q fixed	1.17	0.78	0.93	0.993	0.866	0.785	0.65	0.818	0.818
R fixed	0.597	2.39	1.33	1.29	1.02	1	1.54	0.795	0.994
V fixed	0.914	0.758	0.874	0.836	0.768	1.07	1	0.934	0.894
W fixed	0.963	0.646	0.969	0.923	1.2	1.31	1.37	1.14	1.07
Y fixed	0.979	0.804	0.903	0.866	1.7	2.04	1.58	1.11	1.08
pThr fixed	0.898	1.36	1.33	0.99	1.03	1.41	1.53	1.4	1.14
pTyr fixed	0.431	0.475	0.716	0.689	1.07	1.01	0.786	0.912	1.09
